Laboratory results: article PMC12148588 (eBioMedicine, 2025)

Biological target: T1, SARS-CoV-2 RBD of the Wuhan strain (Acro Biosystems SPD-C82E9-25) (SARS-CoV-2, Wuhan strain, UniProt P0DTC2)
T1 construct: source: bought: Acro Biosystems
Assay: SPR; Biacore 8K+, […]; 10 mM HEPES pH 7.4, 150 mM NaCl, 3 mM EDTA, 0.05% Tween 20; […]
Conditions: both partners purified

B1: MB043_CL39 (antibody, V domains shown)
VH: EVQLVETGGGLIHPGGSLRLSCAASEFIVSYNYMSWVRQAPGKGLEWVSVIYSGGSTFYADAVKGRFTISRDSSKNTLDLLMNSLRVEDTAVYYCARVLPSNTDYFDYWGQGILVTVSS
VL: QSVLTQPPSVSGATGQRVTISCTGSNSNIGAGSDVHWYQQLPGAAPKLLIYVNNNRPSGVPDRFSGSKSGTSASLAITGLQAEDEADYYCQSYDSSLSGYVFGTGTKVTVL
fold higher affinity than MB027_D06L: > 200 fold
